In the RNAGym collection of RNA variant scans (doi:10.7554/elife.90254) one finds self-cleavage data, which are given here for 167 variants.

B1: LINE1-mini (parent)
chain: GGCAGAGCUCAACACAGCGUGGCAAAGUGGCUGUGGCUAGACUGCC

In this series the parent is B1. Nature of the series: self-cleavage, relative activity (ratio to wild type); higher = more cleavage; in vitro, sequencing; the parent is a self-cleaving ribozyme.
In the case of U38G C42U, the self-cleavage amounted to 0.03.

Take U38G C42A: the self-cleavage turned out to be 0.03.

On to U38G C42G, for which the self-cleavage was determined as 0.02.

As to A41U C45G, the self-cleavage is 0.23.

Regarding A41U C45A, the self-cleavage stood at 0.19.

For the variant C37G A41G, the self-cleavage worked out at 0.03.

In the case of C37G A41U, the self-cleavage came to 0.03.

Regarding C37G A41C, the self-cleavage stood at 0.02.

As for G36U U38C, the self-cleavage was found to be 0.11.

As to G36U U38A, the self-cleavage amounted to 0.05.

In the case of G36U U38G, the self-cleavage was 0.02.

On to U38C C46A, for which the self-cleavage was 1.27.

For U38C C46G, the self-cleavage turned out to be 0.64.

For the variant U38C C46U, the self-cleavage was determined as 0.44.

Turning to G40C G44C, the self-cleavage turned out to be 0.06.

As to G40C G44A, the self-cleavage was 0.12.

G40C G44U: the self-cleavage amounted to 0.07.

With G40U C45U, the self-cleavage turned out to be 0.15.

With G40U C45A, the self-cleavage was found to be 0.09.

As to G40U C45G, the self-cleavage is 0.14.

Consider U38C A41C, for which the self-cleavage was 0.04.

In the case of U38C A41U, the self-cleavage came to 0.13.

Take U38C A41G: the self-cleavage was determined as 0.11.

G40A A41U: the self-cleavage came out at 0.26.

In the case of G40A A41G, the self-cleavage stood at 0.08.

Turning to G40A A41C, the self-cleavage stood at 0.13.

In the case of G40A C45A, the self-cleavage came to 0.12.

For the variant G40A C45U, the self-cleavage is 0.16.

Consider G40A C45G, for which the self-cleavage worked out at 0.13.

A39C C46G: the self-cleavage amounted to 0.17.

As for A39C C46U, the self-cleavage is 0.2.

As to A39C C46A, the self-cleavage was 0.13.

A39C G44C: the self-cleavage stood at 0.04.

A39C G44U: the self-cleavage was 0.1.

A39C G44A: the self-cleavage stood at 0.08.

As to C37G G40C, the self-cleavage was 0.08.

As for C37G G40U, the self-cleavage came to 0.08.

As for C37G G40A, the self-cleavage was found to be 0.08.

Turning to U38C G40A, the self-cleavage was determined as 0.07.

Regarding U38C G40C, the self-cleavage was determined as 0.06.

Consider U38C G40U, for which the self-cleavage amounted to 0.1.

In the case of C37G A39C, the self-cleavage worked out at 0.06.

In the case of C37G A39U, the self-cleavage is 0.08.

On to C37G A39G, for which the self-cleavage amounted to 0.02.

With A41G, the self-cleavage came to 0.34.

As to A41C, the self-cleavage came out at 0.06.

For A41U, the self-cleavage was found to be 0.67.

Turning to G36U C46U, the self-cleavage was found to be 0.1.

Turning to G36U C46G, the self-cleavage was 0.08.

Consider G36U C46A, for which the self-cleavage was determined as 0.1.

On to C37A C42U, for which the self-cleavage is 0.16.

Regarding C37A C42G, the self-cleavage came out at 0.06.

C37A C42A: the self-cleavage amounted to 0.05.

On to C37G G44A, for which the self-cleavage worked out at 0.04.

On to C37G G44C, for which the self-cleavage worked out at 0.03.

As for C37G G44U, the self-cleavage came to 0.07.

With A39G G40C, the self-cleavage is 0.08.

Take A39G G40A: the self-cleavage was found to be 0.05.

Take A39G G40U: the self-cleavage turned out to be 0.14.

As for U38G A39U, the self-cleavage amounted to 0.13.

Consider U38G A39G, for which the self-cleavage came to 0.02.

For U38G A39C, the self-cleavage stood at 0.1.

Turning to A39G C45A, the self-cleavage amounted to 0.1.

Turning to A39G C45G, the self-cleavage came to 0.09.

As to A39G C45U, the self-cleavage was determined as 0.06.

On to U38A G44C, for which the self-cleavage stood at 0.09.

Consider U38A G44U, for which the self-cleavage turned out to be 0.17.

Turning to U38A G44A, the self-cleavage is 0.28.

Consider U38A A41G, for which the self-cleavage was 0.14.

Consider U38A A41U, for which the self-cleavage stood at 0.1.

Regarding U38A A41C, the self-cleavage came out at 0.04.

For the variant C37A C46G, the self-cleavage worked out at 0.06.

Take C37A C46U: the self-cleavage is 0.04.

As for C37A C46A, the self-cleavage was determined as 0.05.

On to A39U G40C, for which the self-cleavage turned out to be 0.18.

A39U G40U: the self-cleavage amounted to 0.14.

For A39U G40A, the self-cleavage worked out at 0.17.

On to C37U A41C, for which the self-cleavage was found to be 0.02.

With C37U A41U, the self-cleavage is 0.06.

Consider C37U A41G, for which the self-cleavage was determined as 0.04.

On to G36U G44C, for which the self-cleavage came to 0.08.

For the variant G36U G44U, the self-cleavage came to 0.09.

G36U G44A: the self-cleavage turned out to be 0.06.

Regarding A41G G44A, the self-cleavage was 0.08.

For A41G G44C, the self-cleavage was 0.05.

For the variant A41G G44U, the self-cleavage turned out to be 0.06.

With C37U G40C, the self-cleavage came out at 0.24.

With C37U G40A, the self-cleavage was determined as 0.14.

C37U G40U: the self-cleavage turned out to be 0.16.

With A39G U43C, the self-cleavage worked out at 0.04.

A39G U43G: the self-cleavage was 0.12.

For A39G U43A, the self-cleavage was determined as 0.04.

G40U U43A: the self-cleavage worked out at 0.08.

As for G40U U43G, the self-cleavage was determined as 0.47.

Take G40U U43C: the self-cleavage worked out at 0.15.

Turning to U38G G40U, the self-cleavage is 0.05.

Consider U38G G40C, for which the self-cleavage was determined as 0.03.

As for U38G G40A, the self-cleavage worked out at 0.04.

On to C37A U43G, for which the self-cleavage is 0.08.

Turning to C37A U43A, the self-cleavage came to 0.13.

Regarding C37A U43C, the self-cleavage is 0.05.

As to C37A A41U, the self-cleavage was 0.08.

Consider C37A A41C, for which the self-cleavage came out at 0.03.

Turning to C37A A41G, the self-cleavage was determined as 0.12.

On to G40U, for which the self-cleavage is 0.15.

On to G40C, for which the self-cleavage worked out at 0.09.

Turning to G40A, the self-cleavage came out at 0.14.

U38C A39U: the self-cleavage is 0.7.

U38C A39C: the self-cleavage worked out at 0.1.

With U38C A39G, the self-cleavage is 0.06.

Consider C37A G44U, for which the self-cleavage is 0.18.

For the variant C37A G44A, the self-cleavage was determined as 0.13.

Regarding C37A G44C, the self-cleavage is 0.07.

For the variant G40C C46G, the self-cleavage came out at 0.08.

Turning to G40C C46A, the self-cleavage is 0.1.

For G40C C46U, the self-cleavage amounted to 0.08.

With A39G C42A, the self-cleavage came to 0.09.

For the variant A39G C42U, the self-cleavage is 0.12.

On to A39G C42G, for which the self-cleavage was determined as 0.03.

As to U38G G44U, the self-cleavage was 0.03.

Consider U38G G44A, for which the self-cleavage stood at 0.03.

U38G G44C: the self-cleavage is 0.06.

On to G40U C42U, for which the self-cleavage is 0.07.

As for G40U C42A, the self-cleavage stood at 0.09.

Consider G40U C42G, for which the self-cleavage was determined as 0.08.

As to C37A, the self-cleavage is 0.08.

Consider C37G, for which the self-cleavage came out at 0.05.

On to C37U, for which the self-cleavage came out at 0.07.

In the case of G40A C46U, the self-cleavage was determined as 0.14.

Take G40A C46G: the self-cleavage was found to be 0.11.

Consider G40A C46A, for which the self-cleavage is 0.14.

Consider U38G A41G, for which the self-cleavage came to 0.14.

With U38G A41C, the self-cleavage stood at 0.02.

As to U38G A41U, the self-cleavage turned out to be 0.04.

As to A41C U43C, the self-cleavage was determined as 0.08.

For the variant A41C U43A, the self-cleavage is 0.11.

Consider A41C U43G, for which the self-cleavage worked out at 0.06.

As to A39C U43C, the self-cleavage is 0.08.

With A39C U43A, the self-cleavage stood at 0.04.

Turning to A41G U43A, the self-cleavage came out at 0.05.

As to A41G U43G, the self-cleavage turned out to be 0.05.

Consider A41G U43C, for which the self-cleavage was found to be 0.04.

For the variant G36U U43C, the self-cleavage came to 0.06.

As to G36U U43G, the self-cleavage was 0.1.

As for G36U U43A, the self-cleavage turned out to be 0.04.

As to A39C C42A, the self-cleavage came to 0.1.

Regarding A39C C42U, the self-cleavage worked out at 0.05.

As to A39C C42G, the self-cleavage came to 0.06.

On to G40U G44U, for which the self-cleavage was 0.12.

As for G40U G44C, the self-cleavage came out at 0.16.

G40U G44A: the self-cleavage amounted to 0.14.

For the variant U38A C46A, the self-cleavage came out at 0.35.

As for U38A C46G, the self-cleavage is 0.38.

As for U38A C46U, the self-cleavage was 0.3.

Turning to G36U C45U, the self-cleavage amounted to 0.11.

Regarding C37A G40U, the self-cleavage was found to be 0.2.

With C37A G40A, the self-cleavage worked out at 0.19.

C37A G40C: the self-cleavage was determined as 0.2.

As for G40C C42G, the self-cleavage worked out at 0.1.

As for G40C C42U, the self-cleavage worked out at 0.07.

In the case of G40C C42A, the self-cleavage turned out to be 0.07.

For A41C C46A, the self-cleavage was determined as 0.05.

A41C C46U: the self-cleavage was 0.04.

Consider A41C C46G, for which the self-cleavage is 0.07.

As to A39C A41G, the self-cleavage is 0.1.

For A39C A41C, the self-cleavage was determined as 0.62.

For the variant A39C A41U, the self-cleavage was found to be 0.4.
